Assay results from paper PMC12075686, “Structural basis of phosphorylation-independent nuclear import of CIRBP by TNPO3” (Nature Communications, 2025).
Non-standard residues stand in square brackets, D forms with d. No end group written: not given here. pS = N[C@@H](COP(=O)(O)O)C(=O)O

T1: Transportin 3 (TNPO3), full-length wild type (human, UniProt Q9Y5L0 1-923)
T1 construct: Transportin 3 (TNPO3), human, full-length wild type; For the NMR experiments made 15N-labelled with 13C-methyl labelling of isoleucine and methionine side chains ([IM-methyl 13C]); Vector pETM11-His6-protein A with a TEV site downstream of the protein A tag; also called TNPO3 WT; TNPO3 FL WT; source: E. coli BL21-(DE3) Star, purified (Ni-NTA, TEV cleavage, second Ni-NTA, SEC Superdex 200); not …
T1 sequence (looked up): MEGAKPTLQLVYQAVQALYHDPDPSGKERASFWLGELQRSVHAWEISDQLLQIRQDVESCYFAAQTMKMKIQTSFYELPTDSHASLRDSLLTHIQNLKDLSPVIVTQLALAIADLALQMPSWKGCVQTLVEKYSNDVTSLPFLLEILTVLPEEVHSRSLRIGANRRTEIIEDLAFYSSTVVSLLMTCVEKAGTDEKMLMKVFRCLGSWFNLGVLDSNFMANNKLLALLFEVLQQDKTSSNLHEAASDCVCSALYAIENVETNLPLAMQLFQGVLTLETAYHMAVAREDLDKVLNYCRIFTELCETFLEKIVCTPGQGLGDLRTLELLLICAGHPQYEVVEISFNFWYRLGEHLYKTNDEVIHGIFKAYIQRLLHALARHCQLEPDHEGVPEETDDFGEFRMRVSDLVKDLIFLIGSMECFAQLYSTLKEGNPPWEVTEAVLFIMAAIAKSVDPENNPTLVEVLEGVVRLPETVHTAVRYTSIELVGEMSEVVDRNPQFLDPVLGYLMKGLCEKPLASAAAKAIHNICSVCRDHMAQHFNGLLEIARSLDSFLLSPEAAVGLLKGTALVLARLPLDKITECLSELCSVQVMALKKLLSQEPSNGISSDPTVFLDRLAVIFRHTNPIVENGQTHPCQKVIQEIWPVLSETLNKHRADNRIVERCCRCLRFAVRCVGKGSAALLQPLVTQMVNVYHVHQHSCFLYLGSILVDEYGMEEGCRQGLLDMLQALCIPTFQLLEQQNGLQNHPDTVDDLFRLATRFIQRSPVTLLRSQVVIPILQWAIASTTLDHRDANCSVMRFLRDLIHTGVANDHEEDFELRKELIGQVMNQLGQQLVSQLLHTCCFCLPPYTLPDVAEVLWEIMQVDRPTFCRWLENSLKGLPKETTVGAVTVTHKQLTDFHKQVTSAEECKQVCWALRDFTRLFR

T2: Transportin 3 (TNPO3), full-length wild type (human, UniProt Q9Y5L0 1-923)
T2 chain: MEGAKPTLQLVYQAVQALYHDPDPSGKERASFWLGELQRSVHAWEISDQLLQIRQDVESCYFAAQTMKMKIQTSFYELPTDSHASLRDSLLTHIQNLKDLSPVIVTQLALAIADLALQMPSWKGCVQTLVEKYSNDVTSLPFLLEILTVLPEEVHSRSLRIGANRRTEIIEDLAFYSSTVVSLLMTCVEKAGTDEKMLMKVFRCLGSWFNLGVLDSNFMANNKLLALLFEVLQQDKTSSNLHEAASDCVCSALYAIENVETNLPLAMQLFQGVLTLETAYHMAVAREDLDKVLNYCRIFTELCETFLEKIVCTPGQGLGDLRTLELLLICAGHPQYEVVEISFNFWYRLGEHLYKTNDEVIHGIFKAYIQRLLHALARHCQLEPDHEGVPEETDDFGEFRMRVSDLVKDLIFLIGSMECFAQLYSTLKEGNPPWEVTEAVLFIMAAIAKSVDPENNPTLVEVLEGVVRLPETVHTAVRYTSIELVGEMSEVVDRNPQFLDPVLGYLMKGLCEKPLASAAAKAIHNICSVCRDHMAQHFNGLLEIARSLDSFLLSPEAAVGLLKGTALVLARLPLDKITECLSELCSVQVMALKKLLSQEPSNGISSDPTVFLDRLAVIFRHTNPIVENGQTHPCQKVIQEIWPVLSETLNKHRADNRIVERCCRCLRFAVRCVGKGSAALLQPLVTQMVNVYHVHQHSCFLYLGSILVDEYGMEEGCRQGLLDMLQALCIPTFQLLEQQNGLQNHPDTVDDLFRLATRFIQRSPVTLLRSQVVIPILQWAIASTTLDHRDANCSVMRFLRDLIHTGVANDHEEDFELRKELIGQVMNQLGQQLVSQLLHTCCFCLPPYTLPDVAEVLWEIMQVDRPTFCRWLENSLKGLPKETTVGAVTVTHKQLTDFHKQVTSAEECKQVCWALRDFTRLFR


Legend:
[1] = biological target: T1, Transportin 3 (TNPO3), full-length wild …; test: NMR titration; 1H NMR spectra of 50 µM peptide free and with a stoichiometric amount (50 µM) of TNPO3 WT; line broadening of peptide signals; settings: both partners purified
[2] = biological target: T1, Transportin 3 (TNPO3), full-length wild …; test: ITC; 100 µM ligand in the syringe injected (28 x 10 µL) into 10 µM TNPO3 (WT or C511A) in the cell; 25 °C; 50 mM Tris-HCl pH 7.5, 150 mM NaCl, 2 mM TCEP, 0.04% NaN3; settings: both partners purified
[3] = biological target: T2, Transportin 3 (TNPO3), full-length wild …; test: ITC; phosphorylated, rep2
[4] = biological target: T2, Transportin 3 (TNPO3), full-length wild …; test: ITC; phosphorylated

| Binder | binding result [1] | Kd [2] [µM] | Kd [3] [µM] | Kd [4] [µM] |
| --- | --- | --- | --- | --- |
| SQVYRCGFQPFNQHLLPW (peptide, UniProt P54886 3-20, looked up, Delta-1-pyrroline-5-carboxylate synthase (P5CS), human, residues 3-20; also called P5CS^RSY (3–20); delta-1-pyrroline-5-carboxylate synthase; source: synthetic peptide (Peptide Specialty Laboratories GmbH)) [P5CS (3-20) synthetic peptide] | binds |  |  |  |
| SRDRRFRGRYRSPYSG (peptide, UniProt Q14498 86-101, looked up, also called RBM39^RSY (86–101); source: synthetic peptide (Peptide Specialty Laboratories GmbH)) [RBM39 (86-101) synthetic peptide] | binds |  |  |  |

Second part, the binder after the results:

| binding result [1] | Kd [2] [µM] | Kd [3] [µM] | Kd [4] [µM] | Binder |
| --- | --- | --- | --- | --- |
| binds |  |  |  | PSGGSYRDSYESYGNS (peptide, UniProt P38159 276-291, looked up, also called RBMX^RSY (276–291); source: synthetic peptide (Peptide Specialty Laboratories GmbH)) [RBMX (276-291) synthetic peptide] |
|  | 5.99 | 2.54 | 2.54 | SRDYYSSR[pS]Q[pS]GGY[pS]DRSSGGSYRDSYDSYATHNE (domain or fragment, human, UniProt Q14011 138-172, looked up, also called pCIRBP^RSY; phosphorylated CIRBP^RSY; source: E. coli BL21-(DE3) Star, purified; phosphorylated in vitro with recombinant SRPK1 and ATP overnight, isolated by SEC (Superdex 30 Increase); not shown: His6, N-terminal, cleaved; protein A, N-terminal, cleaved) [Phosphorylated RSY region of CIRBP (138-172), phosphorylated in vitro by SRPK1] |
